This note sets out measurements from patent US20070116705A1.

Chain of N-terminus of murine PDE8, containing the PAS/PAC domain, fused to the LexA DNA binding domain (PDE8/LexA) (murine) (P0A7C2 other isoform, or with tags, fused parts or gaps limits assumed): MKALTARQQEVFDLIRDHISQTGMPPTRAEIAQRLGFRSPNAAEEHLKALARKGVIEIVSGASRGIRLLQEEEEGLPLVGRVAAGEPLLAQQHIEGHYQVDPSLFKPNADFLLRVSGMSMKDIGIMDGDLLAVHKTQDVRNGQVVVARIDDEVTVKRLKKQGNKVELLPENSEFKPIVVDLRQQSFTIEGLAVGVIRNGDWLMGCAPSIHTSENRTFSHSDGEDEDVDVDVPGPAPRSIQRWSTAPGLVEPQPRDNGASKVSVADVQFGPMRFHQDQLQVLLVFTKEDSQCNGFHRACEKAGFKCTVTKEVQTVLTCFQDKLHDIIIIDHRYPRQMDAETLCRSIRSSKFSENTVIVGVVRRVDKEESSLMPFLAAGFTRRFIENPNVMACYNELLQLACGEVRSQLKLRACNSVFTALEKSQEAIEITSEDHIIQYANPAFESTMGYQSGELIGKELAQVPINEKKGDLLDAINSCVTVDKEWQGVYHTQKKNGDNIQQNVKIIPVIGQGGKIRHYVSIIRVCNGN

This experiment concerns the target N-terminus of murine PDE8, containing the PAS/PAC domain, fused to the LexA DNA binding domain (PDE8/LexA) (murine). Briefly: yeast two-hybrid screen, number of high-stringency positive cDNA clones.
KIAA0898 (from UniProt O94972 1-964) gave a # of clones of 8 clones.

In turn, LC8/PIN (Novel) displayed a # of clones of 15 clones.

For “LC8/PIN (dynein 8 kDa light chain) (from UniProt P63167 1-89)”, the # of clones came out at 30 clones.
